A short description of this series: yeast display, Sf9 membrane polyspecificity reagent, FACS + sequencing; frameworks hold sequencing errors. In a few lines: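 Sorting gates, low and high (top ~1%), were placed on anti-HA fluorescence to track expression and on streptavidin fluorescence to track reagent binding. A clone's polyreactivity label is taken from the gate it came out of. The reagent was 10% biotinylated, detergent-solubilized Sf9 membrane, applied for 1 hour at 4 °C to galactose-induced yeast display cells.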
As for “QVQLVESGGGLVQAGGSLRLSCAASGFIFTVYAMGWYRQAPGKERELVAAINRSGTRTTYADSVKGRFSISRDNAKNTVYIQMNSLKPEDTAVYYCAALSTGSHWQNEYGYWGQGTQVTVSS”, the “polyreactivity (PSR sort gate)” value was “low polyreactivity”. Then “QVQLVESGGGLVQAGGSLRLSCAASGRTFPGNAMGWYRQAPGKERELVAAISKSSSRTYYADSVKGRFTISRDNAKNTVYLQMNSLKPEDTAVYYCAASSFNNGHRYDYWGQGTQVTVSS”, with “high polyreactivity”; and “QVQLVESGGGLVQAGGSLRLSCAASGRAFKRYAMGWYRQAPGKERELVAAITRSGGSTYYADSVTGRFTISRDKAKNTVYLQMNSLKPEDTAVYYCATRSYNNELEYWGQGTQVTVSS”, with “high polyreactivity”. Consider “QVQLVESGGGLVQAGGSLRLSCAASGSIIGYYAMGWYRQARGKERELVAAISSSGASTYYADSVKGRFTISRDNAKYTVYLQMNSLKPEDTAVYYCNAARRYPTRGGYWGQGTQVTVSS”, for which the “polyreactivity (PSR sort gate)” value is listed as “high polyreactivity”. Then “QVQLVESGGGLVQAGGSLRLSCAASGNIFYKNNMGWYRQAPGKERELVAAISFSGGGTYYADSVKGRFTISRDNAKNTVYLQMNSLKPEDTAVYYCAAEYTYGWTYRPFDYWGQGTQVTVSS”, with “high polyreactivity”; and “QVQLVESGGGLVQAGGSLRLSCAASGSISPQNVMGWYRQAPGKERELVAAITGGGSTNYADSVKGRFTISRDNAKNTVYLQMNSLKPEDTAVYYCNADYFQDRLDYWGHGTQVTVSS”, with “low polyreactivity”; and “QVQLVESGGGLVQAGGSLRLSCAASGSIFEGSVMGWSRQAPGKEREWVATISFSGGSTYYADSVKGRFTISRDNAKNTLYLQMNSLKPEDTAVYYCNALVYHTKGDYGYWGQGTQVTVSS”, with “low polyreactivity”. With “QVQLVESGGGLVQAGGSLSLSCAASGFIFYRYAMGWYRQAPGKERELVAAITSGGSTKYADSVKGRFTISRDNAKNTVYLQMNSLKPEYTAVYYCAADPFDWFSYYYWGQGTQVTVSS”, the “polyreactivity (PSR sort gate)” value was “low polyreactivity”. Then “QVQLVESGGGLVQAGGSLRLSCAASGFIFTSYDMGWYRQAPWKEREFVAAISWSGDRTYYADSVKGRFTISRDYAKNTVYLQMNSLKPEDTAVYYCAADRSIRRYYGYDYWGQGTQVTVSS”, with “high polyreactivity”; and “QVQLVESGGGLVQAGGSLRLSCAASGIIYDAYAMGWYRQAPGKERELVAAISSGGSTYYADSVKGRFTISRDNAKNTVSLQMNSLKPEDTAVYYCAAETEYPSWYDYWGQGTQVTVSS”, with “low polyreactivity”.

Consider “QVQLVESGGGLVQAGGSLRLSCAASGSTFDAYAMGWYRQAPGKERELVAAITWSGGSTYYADSVKGRFTISRDNAKTTVYLQMNSLKPEDTAVYYCAAYYLIFYFEFDYWGQGTQVTVYS”, for which the “polyreactivity (PSR sort gate)” value is recorded as “low polyreactivity”.

As for “QVQLVESGGGLVQAGGSLRLSCAASGRIFYENAMGWYRQAPGKDRELVAAISGSGGSTYYADSVKGRFTISRDNAKNTVYLQMNSLKPEDTAVYYCNAYRRVPGYDYWGQGTQVTVSS”, the “polyreactivity (PSR sort gate)” value was “high polyreactivity”. Under “QVQLVESGGGLVQAGGSLRLSCAASGRIFKSYAMGWYRQAPGKERELVAAISSGDDTYYADSVKGRFTISRDNAKNTVYLQMNSLKPEDTAVYYCAADYWGWLYLYGDYLVDYWGQGTQVTVSS” stands “low polyreactivity”; under “QVQLVESGGGIVQAGGSLRLRCAASGSTFNKYAMGWYRQAPGKERELVAAISGGGRTNYADSVKGRFTISRDNAKNTVYLQMNSLKPEDTAVYSCARPSPHKGYDYWGQGTQVTVSS”, “high polyreactivity”; under “QVQLVESGGRLVQAGGSLRLSCAASGSIFRANAMVWYRQAPGNERELVAAISPNGGSTYYADSVKGRFTISRDHAKNTVYLQMNSLKPEDTAVYYCNTDHRNIWFRFKYDYWGQGTQVTVSS”, “high polyreactivity”.

For the sequence “QVQLVESGGGLVQAGGSLRLSCAASGSFFRNYAMGWYRQAPGKERELVAAISRRGTSTFYADSVKGRFTISRDNAMNTVYLQMNSLKPEDTAVYYCAARGSAGGDYGYWGQGTQVTVSS”, the “polyreactivity (PSR sort gate)” value is recorded as “high polyreactivity”.

The values above are taken from the nanobody polyreactivity screen of Harvey et al. (2022).
